Data as given in article PMC8071527, “Substrate Specificity of Chimeric Enzymes Formed by Interchange of the Catalytic and Specificity Domains of the 5′-Nucleotidase UshA and the 3′-Nucleotidase CpdB” (Molecules, 2021).

What was measured:
Experiment in all cases: phosphate release, colorimetric, saturation kinetics
Format in all cases: biochemical, Escherichia coli
Conditions in all cases: Mn2+; alkaline phosphatase as auxiliary enzyme
[1] = tested on: O=c1ccn([C@@H]2O[C@H](CO[P@@](=O)(O)O[P@@](=O)(O)O[C@H]3O[C@H](CO)[C@@H](O)[C@H](O)[C@H]3O)[C@@H](O)[C@H]2O)c(=O)[nH]1
Excerpt: (§1) phosphate release, colorimetric, saturation kinetics on CpdB_Ndom–UshA_Cdom

[2] = tested on: Nc1ncnc2c1ncn2[C@@H]1O[C@H](CO)[C@H]2OP(=O)(O)O[C@H]21
Excerpt: as §1

[3] = tested on: C[N+](C)(C)CCOP(=O)(O)OP(=O)([O-])OC[C@H]1O[C@@H](n2ccc(N)nc2=O)[C@H](O)[C@@H]1O
Excerpt: as §1

[4] = tested on: O=[N+]([O-])c1ccc(OP(=O)(O)Oc2ccc([N+](=O)[O-])cc2)cc1
Excerpt: as §1

[5] = tested on: O=c1ccn([C@@H]2O[C@H](CO[P@@](=O)(O)O[P@@](=O)(O)O[C@H]3O[C@H](CO)[C@@H](O)[C@H](O)[C@H]3O)[C@@H](O)[C@H]2O)c(=O)[nH]1; remark: listed apart in the source
Excerpt: (§2) phosphate release, colorimetric, saturation kinetics on UshA_Ndom–CpdB_Cdom

[6] = tested on: Nc1ncnc2c1ncn2[C@@H]1O[C@H](CO)[C@H]2OP(=O)(O)O[C@H]21; remark: listed apart in the source
Excerpt: as §2

[7] = tested on: C[N+](C)(C)CCOP(=O)(O)OP(=O)([O-])OC[C@H]1O[C@@H](n2ccc(N)nc2=O)[C@H](O)[C@@H]1O; remark: listed apart in the source
Excerpt: as §2

[8] = tested on: O=[N+]([O-])c1ccc(OP(=O)(O)Oc2ccc([N+](=O)[O-])cc2)cc1; remark: listed apart in the source
Excerpt: as §2

Substance: CpdB_Ndom–UshA_Cdom (Escherichia coli)
- Km [1]: 5900 ± 1900 µM
- kcat [1]: 0.2 ± 0.1 s⁻¹
- kcat/Km [1]: 40 ± 8 M⁻¹ s⁻¹
- Km [2]: 370 ± 40 µM
- kcat [2]: 117 ± 24 s⁻¹
- kcat/Km [2]: 320000 ± 80000 M⁻¹ s⁻¹
- Km [3]: 3900 ± 600 µM
- kcat [3]: 11 ± 3 s⁻¹
- kcat/Km [3]: 2700 ± 300 M⁻¹ s⁻¹
- Km [4]: 1400 ± 60 µM
- kcat [4]: 208 ± 77 s⁻¹
- kcat/Km [4]: 150000 ± 55000 M⁻¹ s⁻¹

Substance: UshA_Ndom–CpdB_Cdom (Escherichia coli)
- Km [5]: 5000 ± 1700 µM
- kcat [5]: 0.1 ± 0.01 s⁻¹
- kcat/Km [5]: 20 ± 10 M⁻¹ s⁻¹
- Km [6]: 1100 ± 350 µM
- kcat [6]: 3.6 ± 1 s⁻¹
- kcat/Km [6]: 3400 ± 1300 M⁻¹ s⁻¹
- Km [7]: 1400 ± 400 µM
- kcat [7]: 0.3 ± 0.01 s⁻¹
- kcat/Km [7]: 210 ± 60 M⁻¹ s⁻¹
- Km [8]: 670 ± 120 µM
- kcat [8]: 45 ± 3 s⁻¹
- kcat/Km [8]: 68000 ± 13000 M⁻¹ s⁻¹
